Data published in the NTF2 design screens of Basanta et al. (2020).

Assay: protease stability score; higher = more stable; yeast display proteolysis, trypsin and chymotrypsin;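 note: log10 excess protease needed over predicted unfolded state with 0 meaning unfolded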

| Sequence | protease stability score |
| --- | --- |
| DEDARRRVHEFFEAIENNDREKLKELADPNVQANYGDKQVRGREQLAEWVDKLHKELRVHFRLKSLDNRGDKIEIRMRVILDINGRPQTQDVTMEMRFHNGRIKHVQVHVDERQLKQKKK | 0.942 |
| DEDARSNFQELLKALQTGDERLFEKNVDPNVTFRYGDKTLTGRHHIMEQLRRDKENSRQDFDVKEWHFHGNRIDVKAQLRFEKNGKPDTVDVNLVAIAHNGRIQEIQIDVQK | -0.278 |
| DEDASKELQRLARENDFKRIAELADENASAQIGDNVWHGREKILTNLKRMQDQVDHQRIHSIRTHGNKLRVTVRMVVNGRDFTFRFVIEVENGRVVSIDIKATSEKDKKKMNEVIG | -0.158 |
| DEDASKQVEDFERALKTGDENRLHELMDKDARVEVGDKRYHGRKQIARQQVQHYEEMRVDLHVQDIDVQGDKIKVDVTRQIEVNGKPISNRIIIYVTIHNGKIQRMDVDVPDEDMDKIEK | 0.769 |
| DEDASRHVRDMIRALQTGDRDKVARYIDPNATMQVGDKRYHGNERIKEQVKRTKDTMRYHMEIKDVHVEGDHIKVDFTFSNNKNGTPTSDRAQIDIRMTNGHATSIVLHNNK | -0.001 |
| DEDASRRMIEMVENLQTGNEEEFKKYVDPNVRIEYGDKRVSGRDQATKWWRSEFTEIRFSMRVQSYSVDGNKVDITVRATFDHNGKPEDKKYKLDIQLHNGHIKKLEITDDS | 1.31 |
| DEDATDNVRQWFEARNQNDENRLMQLVDPNAKIQVGDKFVHGKEDLEKQVKREKDQIHLHMKDMKFTDTGDTVKVRIDYRDEHNGRPKEDRMVAYATVHNGRIENLEVDSDR | -0.179 |
| DEDAVKAYERLLTAWNHGDPDQAKHQVDPNVRVQVGDKQIHGREELARQIERRRREANIHNQLEDYRDNGEEIQLHVEVTEDHNGNPDTKTYTAYAQFTNGKMQELTINDHG | -0.219 |
| DEDAVKLAQEVWKAMHTGDEDKFVKLVDPNARVKIGDKDIHGKDDIKKQLHNRNREIRVRLKHIEIDQNGDQARIHMRFQMTHDGQPRDQSATATMRAQGDKLKSISVTNHG | -0.206 |
| DEDAVKLFHNVQHVIEQGDKDKAVKNFDPNASAKVGDKEVHGMEDWVRTLVKEASQLRIDLKWDDYRVHGDKINMNIELNKEHNGHPSTTRMHIDAHVHNGRVKFVAYNRRP | 0.066 |
| DEDAVKSASNAAQHGDFVRMAEEMRDNPEARYGDKDVRGREEVIRVVRILMEQVDSVKVKRVRVHGEKVTADLKFRVNGREFHANAVVVMDNGRFVKLVLHFTDSDFKHELHKRLE | 1.17 |
| DEDAVKVAEKFVEVEETGSEDDFKRLADKDAKIRVGENHVHGRESLLDELRKRRKQINIVIHHVRAEDRGDKVDVEIEAVDERNGKPNQYNVKFKVKMHNGRVKQIDRDRDR | 0.168 |
| DEDAVNRYEEFVENLKSNNEHKLSEYLDPNVRLVIGDKTLHGKDNFRRRVRHMTKHMRLQLNYKDLKVQGEEIHVHADVRQTHDGKPQNTHFSASMRVNGDKAKEITIKDDG | 0.207 |
| DEDAVRKAIELFKQQETGNPEEVKKLADPNARMVVGDKTFTGMDTINEHLRKLRKEARIRNDIKRYEVNGDKATIEFRQERDHNGRPDTHLVKITIKVTNGRVKVIEIQDKS | 0.175 |
| DEDAVRKAKQWVKALRDGDEDELREQVDPNARINVGDKTFHGMDEFVKDVLKTHSEQRVNFDIKSVNASNGRVDMKMDATFDINGEPKTFSLVLTVDFHNGRAKQLEVKFDPKVKEDLTK | 0.769 |
| DEDAVRLAHKFQDVLNKGDPDKAMRLADPNARVQIGDTEIRGREQLSHHVNEMSNSIRFDLKHVDAQTRGDHVDVRVDQINEVDGRPTRNTDKMTIQIKNGKIVNVNVRVDEDRKQQERD | -0.632 |
| DEDAVRNASTMVEAERRGDENTIQKMMDKHATVKYGDTEVHGREDAARQIRKTHREIRIQVDHYTVEAHNGRVRVEIRVVVNVNGTPYEYHYDYYAEVHNGKFKHIEINVDPDLEDKLKK | -0.16 |
| DEDAVRRVKDMIRNLKSGNPDDAARYADPNARFDIGDWHIDGRKQLVKKLRDITRHMRYKFEMRSVDVTGNKLKFKATAHVSVNGRPITYHMTASIIVHNGHVTHVDQQLPEELLKRIEQ | 0.785 |
| DEDAVRVMETYMKIYETGNPEELNRLVDPNVKFNIGDQRIKGREHARKFWRKILQHSRVELRRLDVHTRPNRVEARAEVVVNHNGKPKNFQFTFSAHLHNGRIKEVTIKHSK | 1.34 |
| DEDAYRKLDTFKKVEEKGDTDRLRKLADPNVEIQVGDRQIRGMHHFAKDVHDKKRHIDIDVHIDEYDVDGNKIQIHAHNKQHVNGKPFNFTVVMWVRIHNGSIKKMKYRIDPDQLRKIRR | 0.227 |
